This note sets out measurements from publication PMC4344524, “Combinatorial recognition of a complex telomere repeat sequence by the Candida parapsilosis Cdc13AB heterodimer”.

The target in data set [1] is CpCdc13AB-DBD complex (Candida parapsilosis) (UniProt G8B7U9+G8B5A5). Briefly: EMSA. The note with it: stated as full-length Kd (~10 nM) at least 100-fold lower; weak shift detected; EMSA: 50 mM Tris-HCl pH 7.5, 2 mM MgCl2, 10 mM NaCl, 1 mM spermidine, 1 mM DTT, 200 ng/ul poly(dI-dC), 5% glycerol, 25 C 60 min; crosslinking: same buffer …. For orientation: A gel shift assay detects complexes by their altered migration in electrophoresis.

For data set [2], the target named is T1, CpCdc13AB heterodimer: His6-SUMO-Cdc13A + GST-Cdc13B-FLAG (Candida parapsilosis, UniProt G8B7U9;G8B5A5 1-456;1-475).
T1 sequence 1: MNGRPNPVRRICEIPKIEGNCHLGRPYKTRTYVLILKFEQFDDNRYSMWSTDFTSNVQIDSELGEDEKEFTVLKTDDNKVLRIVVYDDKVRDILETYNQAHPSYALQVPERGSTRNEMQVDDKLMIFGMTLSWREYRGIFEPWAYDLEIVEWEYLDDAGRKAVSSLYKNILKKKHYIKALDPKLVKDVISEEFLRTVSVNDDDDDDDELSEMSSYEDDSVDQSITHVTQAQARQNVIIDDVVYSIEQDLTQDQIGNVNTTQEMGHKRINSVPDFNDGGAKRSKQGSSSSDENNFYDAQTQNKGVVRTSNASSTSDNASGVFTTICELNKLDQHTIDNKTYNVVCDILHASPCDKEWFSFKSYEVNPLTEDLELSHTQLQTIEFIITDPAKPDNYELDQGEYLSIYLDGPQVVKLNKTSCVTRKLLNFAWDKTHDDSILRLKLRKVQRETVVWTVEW
T1 sequence 2: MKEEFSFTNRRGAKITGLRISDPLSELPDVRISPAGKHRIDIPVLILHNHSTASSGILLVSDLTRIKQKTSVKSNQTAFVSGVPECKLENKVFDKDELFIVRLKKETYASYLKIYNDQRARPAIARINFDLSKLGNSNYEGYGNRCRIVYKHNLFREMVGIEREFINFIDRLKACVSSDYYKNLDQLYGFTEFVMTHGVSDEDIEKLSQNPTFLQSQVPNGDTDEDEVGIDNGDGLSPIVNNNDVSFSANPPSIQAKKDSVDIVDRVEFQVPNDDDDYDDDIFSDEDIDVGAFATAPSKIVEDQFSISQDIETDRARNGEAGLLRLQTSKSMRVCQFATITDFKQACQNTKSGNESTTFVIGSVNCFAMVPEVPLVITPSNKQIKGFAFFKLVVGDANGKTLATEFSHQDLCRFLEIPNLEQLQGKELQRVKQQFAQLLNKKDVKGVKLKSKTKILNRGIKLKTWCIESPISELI
Briefly: competition; vs CpG2 probe; EMSA: 50 mM Tris-HCl pH 7.5, 2 mM MgCl2, 10 mM NaCl, 1 mM spermidine, 1 mM DTT, 200 ng/ul poly(dI-dC), 5% glycerol, 25 C 60 min; crosslinking: same buffer, 22 C 1 h, then UV on ice 20 min. The note with it: protein: recombinant; tags: His6-SUMO (A); GST and FLAG (B); copies: 1;1.

For data set [3], the target named is T1, CpCdc13AB heterodimer: His6-SUMO-Cdc13A …. Briefly: UV photo-crosslinking; lower product level than IO-1 and IO-3; EMSA: 50 mM Tris-HCl pH 7.5, 2 mM MgCl2, 10 mM NaCl, 1 mM spermidine, 1 mM DTT, 200 ng/ul poly(dI-dC), 5% glycerol, 25 C 60 min; crosslinking: same buffer, 22 C 1 h, then UV on ice 20 min. The note with it: protein: recombinant; tags: His6-SUMO (A); GST and FLAG (B); copies: 1;1; label: 32P.

Data set [4] shares this target. Briefly: competition; no effect of truncation; EMSA: 50 mM Tris-HCl pH 7.5, 2 mM MgCl2, 10 mM NaCl, 1 mM spermidine, 1 mM DTT, 200 ng/ul poly(dI-dC), 5% glycerol, 25 C 60 min; crosslinking: same buffer, 22 C 1 h, then UV on ice 20 min. The note with it: protein: recombinant; tags: His6-SUMO (A); GST and FLAG (B); copies: 1;1.
Data set [5] has the same target. The data set is described as follows: competition; no effect; EMSA: 50 mM Tris-HCl pH 7.5, 2 mM MgCl2, 10 mM NaCl, 1 mM spermidine, 1 mM DTT, 200 ng/ul poly(dI-dC), 5% glycerol, 25 C 60 min; crosslinking: same buffer, 22 C 1 h, then UV on ice 20 min. The note with it: protein: recombinant; tags: His6-SUMO (A); GST and FLAG (B); copies: 1;1.
For data set [6] the target is unchanged. The data set is described as follows: competition; affinity unaffected; EMSA: 50 mM Tris-HCl pH 7.5, 2 mM MgCl2, 10 mM NaCl, 1 mM spermidine, 1 mM DTT, 200 ng/ul poly(dI-dC), 5% glycerol, 25 C 60 min; crosslinking: same buffer, 22 C 1 h, then UV on ice 20 min. Particulars: protein: recombinant; tags: His6-SUMO (A); GST and FLAG (B); copies: 1;1.
The target is the same in data set [7]. Briefly: competition; inactive as competitor; EMSA: 50 mM Tris-HCl pH 7.5, 2 mM MgCl2, 10 mM NaCl, 1 mM spermidine, 1 mM DTT, 200 ng/ul poly(dI-dC), 5% glycerol, 25 C 60 min; crosslinking: same buffer, 22 C 1 h, then UV on ice 20 min. Particulars: protein: recombinant; tags: His6-SUMO (A); GST and FLAG (B); copies: 1;1.
For data set [8] the target is unchanged. Briefly: UV photo-crosslinking; mostly Cdc13B adducts; EMSA: 50 mM Tris-HCl pH 7.5, 2 mM MgCl2, 10 mM NaCl, 1 mM spermidine, 1 mM DTT, 200 ng/ul poly(dI-dC), 5% glycerol, 25 C 60 min; crosslinking: same buffer, 22 C 1 h, then UV on ice 20 min. The note with it: protein: recombinant; tags: His6-SUMO (A); GST and FLAG (B); copies: 1;1; label: 32P.
Data set [9] has the same target. Briefly: EMSA; apparent Kd; EMSA: 50 mM Tris-HCl pH 7.5, 2 mM MgCl2, 10 mM NaCl, 1 mM spermidine, 1 mM DTT, 200 ng/ul poly(dI-dC), 5% glycerol, 25 C 60 min; crosslinking: same buffer, 22 C 1 h, then UV on ice 20 min. Particulars: protein: recombinant; tags: His6-SUMO (A); GST and FLAG (B); copies: 1;1.
The target is the same in data set [10]. The data set is described as follows: UV photo-crosslinking; Cdc13A adducts; EMSA: 50 mM Tris-HCl pH 7.5, 2 mM MgCl2, 10 mM NaCl, 1 mM spermidine, 1 mM DTT, 200 ng/ul poly(dI-dC), 5% glycerol, 25 C 60 min; crosslinking: same buffer, 22 C 1 h, then UV on ice 20 min. The note with it: protein: recombinant; tags: His6-SUMO (A); GST and FLAG (B); copies: 1;1; label: 32P.

Data set [11] shares this target. The data set is described as follows: EMSA; EMSA: 50 mM Tris-HCl pH 7.5, 2 mM MgCl2, 10 mM NaCl, 1 mM spermidine, 1 mM DTT, 200 ng/ul poly(dI-dC), 5% glycerol, 25 C 60 min; crosslinking: same buffer, 22 C 1 h, then UV on ice 20 min. Particulars: protein: recombinant; tags: His6-SUMO (A); GST and FLAG (B); copies: 1;1.
Data set [12] has the same target. Briefly: competition; vs CpG2 probe; EMSA: 50 mM Tris-HCl pH 7.5, 2 mM MgCl2, 10 mM NaCl, 1 mM spermidine, 1 mM DTT, 200 ng/ul poly(dI-dC), 5% glycerol, 25 C 60 min; crosslinking: same buffer, 22 C 1 h, then UV on ice 20 min. Particulars: protein: recombinant; tags: His6-SUMO (A); GST and FLAG (B); copies: 1;1. This is another data set of the same source.

As for ATTATACTGAGGTCCGGATGTTG [CpG1], the Kd in data set [1] was over 1000 nM.
For CCGGATGTTGATTATACTGAGGT (ssDNA) [CpG1b], in data set [2], the binding result was “no binding”.
Consider ATTATACTGAGGTCCGGATGTTG (ssDNA, 5-iodo-dU at T13 of CpG1) [IO-2], for which the binding result in data set [3] is given as “binds”.
As to TACTGAGGTCCGGATGTTG (ssDNA) [CpG1-Δ1], the binding result in data set [4] is listed as “binds”.
For the molecule ATTACATTGAGGTCCGGATGTTG (ssDNA) [CpG1-Ct2], in [5], the binding result is “binds”.
In the case of CGATTACTGAGGTCCGGATGTTG (ssDNA) [CpG1-Ct1], in data set [6], the binding result is “binds”.
Take ATTATACTGAGGTCCGGAT (ssDNA) [CpG1-Δ4]: in data set [7], the binding result is “no binding”.
Take ATTATACTGAGGTCCGGATGTTG (ssDNA, 5-iodo-dU at T8 of CpG1) [IO-1]: in data set [8], the binding result was “binds”.
Take ATTATACTGAGGTCCGGATGTTGATTATACTGAGGTCCGGATGTTG (ssDNA) [CpG2]: in data set [9], the Kd was about 7.07 nM.
Consider GTGGGTGTGTGGGTGTGTGGGTGTGTGGGTGTGT (ssDNA) [ScTG34], for which, in [2], the binding result is given as “no binding”.
ATTATACTGAGGTCCGGATGTCA (ssDNA) [CpG1-Ct4]: the binding result in data set [6] is listed as “binds”.
Take ATTATACTGAGGTCCGGATGTTG (ssDNA, 5-iodo-dU at T19 of CpG1) [IO-3]: in [10], the binding result is on record as “binds”.
For the molecule ATTATACTGAGGTCCGGATGTTG (ssDNA) [CpG1], the Kd in data set [11] was about 10 nM.
For GATCATTGGTGTACGGATGTCACGATCATTGGTGTACGGATGTCAC (ssDNA) [CtG2], in data set [2], the binding result is reported as “no binding”.
In the case of CTGATGTTCTTTAGGGAGGTACTGATGTTCTTTAGGGAGGTA (ssDNA) [ClG2], the binding signal in data set [12] was ~20 fold higher concentration for 50% inhibition.
